Source: patent publication US20200115430A1 (I2O THERAPEUTICS, published 2020)
Starred links: 1 amine or outer side, 2 acyl side, 3 side chain; linkers in the order of their positions; H or OH if unused. Positions of bridges follow the written chain, without caps; N, C: chain ends. Groups on a side chain read outwards from the residue. No end group written: not given here. *: point of attachment. C20 diacid = O=C(O)CCCCCCCCCCCCCCCCCCC(=O)*; C17 diacid = O=C(O)CCCCCCCCCCCCCCCC(=O)*; C16 diacid = O=C(O)CCCCCCCCCCCCCCC(=O)*; γGlu = O=C(O)[C@H](CCC(=O)[*:2])N[*:1]

T1: human calcitonin receptor (human, UniProt P30988 25-474)
T1 sequence (looked up): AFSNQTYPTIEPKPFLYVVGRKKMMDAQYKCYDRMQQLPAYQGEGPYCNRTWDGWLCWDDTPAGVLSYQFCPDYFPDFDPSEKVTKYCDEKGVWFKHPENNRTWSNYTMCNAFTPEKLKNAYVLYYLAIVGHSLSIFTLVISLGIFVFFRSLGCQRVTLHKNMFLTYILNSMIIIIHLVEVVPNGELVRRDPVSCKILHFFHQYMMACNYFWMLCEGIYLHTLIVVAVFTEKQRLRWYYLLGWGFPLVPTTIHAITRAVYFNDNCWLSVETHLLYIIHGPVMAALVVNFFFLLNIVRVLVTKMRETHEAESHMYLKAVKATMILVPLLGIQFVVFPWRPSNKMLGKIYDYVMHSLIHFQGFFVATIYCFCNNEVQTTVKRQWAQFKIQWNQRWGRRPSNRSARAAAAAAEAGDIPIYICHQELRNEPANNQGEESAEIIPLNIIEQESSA

T2: human amylin 3 receptor (human, UniProt P30988 25-474; O60896 24-148)
T2 sequence (looked up) 1: T1 sequence (looked up)
T2 sequence (looked up) 2: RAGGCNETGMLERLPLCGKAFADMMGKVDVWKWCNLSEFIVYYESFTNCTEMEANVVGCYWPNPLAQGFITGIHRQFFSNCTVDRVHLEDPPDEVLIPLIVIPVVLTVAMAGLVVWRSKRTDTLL

B1: Compound A80 (peptide)
peptide: SCNTSTCATQRLANEK([γGlu-C17 diacid])HKSSNNFGPILPPTKVGSETY-NH2
modifications: disulfide 2-7; N-terminus assumed
SMILES: CC[C@H](C)[C@H](NC(=O)[C@@H]1CCCN1C(=O)CNC(=O)[C@H](Cc1ccccc1)NC(=O)[C@H](CC(N)=O)NC(=O)[C@H](CC(N)=O)NC(=O)[C@H](CO)NC(=O)[C@H](CO)NC(=O)[C@H](CCCCN)NC(=O)[C@H](Cc1c[nH]cn1)NC(=O)[C@H](CCCCNC(=O)CC[C@H](NC(=O)CCCCCCCCCCCCCCCC(=O)O)C(=O)O)NC(=O)[C@H](CCC(=O)O)NC(=O)[C@H](CC(N)=O)NC(=O)[C@H](C)NC(=O)[C@H](CC(C)C)NC(=O)[C@H](CCCNC(=N)N)NC(=O)[C@H](CCC(N)=O)NC(=O)[C@@H](NC(=O)[C@H](C)NC(=O)[C@@H]1CSSC[C@H](NC(=O)[C@@H](N)CO)C(=O)N[C@@H](CC(N)=O)C(=O)N[C@@H]([C@@H](C)O)C(=O)N[C@@H](CO)C(=O)N[C@@H]([C@@H](C)O)C(=O)N1)[C@@H](C)O)C(=O)N[C@@H](CC(C)C)C(=O)N1CCC[C@H]1C(=O)N1CCC[C@H]1C(=O)N[C@H](C(=O)N[C@@H](CCCCN)C(=O)N[C@H](C(=O)NCC(=O)N[C@@H](CO)C(=O)N[C@@H](CCC(=O)O)C(=O)N[C@H](C(=O)N[C@@H](Cc1ccc(O)cc1)C(N)=O)[C@@H](C)O)C(C)C)[C@@H](C)O
B2: Compound A75 (peptide)
peptide: SCNTSTCATQRLANEK(C20 diacid)HKSSNNFGPILPPTKVGSETY-NH2
modifications: disulfide 2-7; N-terminus assumed
SMILES: CC[C@H](C)[C@H](NC(=O)[C@@H]1CCCN1C(=O)CNC(=O)[C@H](Cc1ccccc1)NC(=O)[C@H](CC(N)=O)NC(=O)[C@H](CC(N)=O)NC(=O)[C@H](CO)NC(=O)[C@H](CO)NC(=O)[C@H](CCCCN)NC(=O)[C@H](Cc1c[nH]cn1)NC(=O)[C@H](CCCCNC(=O)CCCCCCCCCCCCCCCCCCC(=O)O)NC(=O)[C@H](CCC(=O)O)NC(=O)[C@H](CC(N)=O)NC(=O)[C@H](C)NC(=O)[C@H](CC(C)C)NC(=O)[C@H](CCCNC(=N)N)NC(=O)[C@H](CCC(N)=O)NC(=O)[C@@H](NC(=O)[C@H](C)NC(=O)[C@@H]1CSSC[C@H](NC(=O)[C@@H](N)CO)C(=O)N[C@@H](CC(N)=O)C(=O)N[C@@H]([C@@H](C)O)C(=O)N[C@@H](CO)C(=O)N[C@@H]([C@@H](C)O)C(=O)N1)[C@@H](C)O)C(=O)N[C@@H](CC(C)C)C(=O)N1CCC[C@H]1C(=O)N1CCC[C@H]1C(=O)N[C@H](C(=O)N[C@@H](CCCCN)C(=O)N[C@H](C(=O)NCC(=O)N[C@@H](CO)C(=O)N[C@@H](CCC(=O)O)C(=O)N[C@H](C(=O)N[C@@H](Cc1ccc(O)cc1)C(N)=O)[C@@H](C)O)C(C)C)[C@@H](C)O
B3: Compound A88 (peptide)
peptide: SCNTSTCATQRLANEK([γGlu-C16 diacid])HKSSNNFGPILPPTKVGSETY-NH2
modifications: disulfide 2-7; N-terminus assumed
SMILES: CC[C@H](C)[C@H](NC(=O)[C@@H]1CCCN1C(=O)CNC(=O)[C@H](Cc1ccccc1)NC(=O)[C@H](CC(N)=O)NC(=O)[C@H](CC(N)=O)NC(=O)[C@H](CO)NC(=O)[C@H](CO)NC(=O)[C@H](CCCCN)NC(=O)[C@H](Cc1c[nH]cn1)NC(=O)[C@H](CCCCNC(=O)CC[C@H](NC(=O)CCCCCCCCCCCCCCC(=O)O)C(=O)O)NC(=O)[C@H](CCC(=O)O)NC(=O)[C@H](CC(N)=O)NC(=O)[C@H](C)NC(=O)[C@H](CC(C)C)NC(=O)[C@H](CCCNC(=N)N)NC(=O)[C@H](CCC(N)=O)NC(=O)[C@@H](NC(=O)[C@H](C)NC(=O)[C@@H]1CSSC[C@H](NC(=O)[C@@H](N)CO)C(=O)N[C@@H](CC(N)=O)C(=O)N[C@@H]([C@@H](C)O)C(=O)N[C@@H](CO)C(=O)N[C@@H]([C@@H](C)O)C(=O)N1)[C@@H](C)O)C(=O)N[C@@H](CC(C)C)C(=O)N1CCC[C@H]1C(=O)N1CCC[C@H]1C(=O)N[C@H](C(=O)N[C@@H](CCCCN)C(=O)N[C@H](C(=O)NCC(=O)N[C@@H](CO)C(=O)N[C@@H](CCC(=O)O)C(=O)N[C@H](C(=O)N[C@@H](Cc1ccc(O)cc1)C(N)=O)[C@@H](C)O)C(C)C)[C@@H](C)O
B4: Compound A79 (peptide)
peptide: SCNTSTCATQRLANEK(C17 diacid)HKSSNNFGPILPPTKVGSETY-NH2
modifications: disulfide 2-7; N-terminus assumed
SMILES: CC[C@H](C)[C@H](NC(=O)[C@@H]1CCCN1C(=O)CNC(=O)[C@H](Cc1ccccc1)NC(=O)[C@H](CC(N)=O)NC(=O)[C@H](CC(N)=O)NC(=O)[C@H](CO)NC(=O)[C@H](CO)NC(=O)[C@H](CCCCN)NC(=O)[C@H](Cc1c[nH]cn1)NC(=O)[C@H](CCCCNC(=O)CCCCCCCCCCCCCCCC(=O)O)NC(=O)[C@H](CCC(=O)O)NC(=O)[C@H](CC(N)=O)NC(=O)[C@H](C)NC(=O)[C@H](CC(C)C)NC(=O)[C@H](CCCNC(=N)N)NC(=O)[C@H](CCC(N)=O)NC(=O)[C@@H](NC(=O)[C@H](C)NC(=O)[C@@H]1CSSC[C@H](NC(=O)[C@@H](N)CO)C(=O)N[C@@H](CC(N)=O)C(=O)N[C@@H]([C@@H](C)O)C(=O)N[C@@H](CO)C(=O)N[C@@H]([C@@H](C)O)C(=O)N1)[C@@H](C)O)C(=O)N[C@@H](CC(C)C)C(=O)N1CCC[C@H]1C(=O)N1CCC[C@H]1C(=O)N[C@H](C(=O)N[C@@H](CCCCN)C(=O)N[C@H](C(=O)NCC(=O)N[C@@H](CO)C(=O)N[C@@H](CCC(=O)O)C(=O)N[C@H](C(=O)N[C@@H](Cc1ccc(O)cc1)C(N)=O)[C@@H](C)O)C(C)C)[C@@H](C)O

Biological target: T1, human calcitonin receptor
Experiment: cell-based or functional assay

Binder | pEC50 (cAMP accumulation), 0% HSA | pEC50 (cAMP accumulation), 0.1% HSA | pEC50 (cAMP accumulation), 4% HSA
B1 | 10.2 pEC50 | 9.2 pEC50 | 7.7 pEC50
B2 | 10.8 pEC50 | 10 pEC50 | 7.7 pEC50
B3 | 9.8 pEC50 | 9 pEC50 | 7.8 pEC50
B4 | 10.3 pEC50 | 9.9 pEC50 | 9.5 pEC50

Biological target: T2, human amylin 3 receptor
Experiment: cell-based or functional assay

Binder | pEC50 (cAMP accumulation), 0% HSA | pEC50 (cAMP accumulation), 0.1% HSA | pEC50 (cAMP accumulation), 4% HSA
B1 | 11.3 pEC50 | 10.4 pEC50 | 8.7 pEC50
B2 | 11.9 pEC50 | 10.5 pEC50 | 8.9 pEC50
B3 | 10.8 pEC50 | 10.1 pEC50 | 8.7 pEC50
B4 | 11.5 pEC50 | 10.4 pEC50 | 9.4 pEC50
